This note sets out measurements from patent US20040191887A1 (WISCONSIN ALUMNI RESEARCH FOUNDATION, published 2004).

Test [1] concerns the target botulinum neurotoxin A (Clostridium botulinum, UniProt P0DPI0 2-1296). The test can be described thus: GST pull-down with and without gangliosides, immunoblot.
The target of test [2] is T1, botulinum neurotoxin E (Clostridium botulinum, UniProt Q00496 2-1251).
T1 sequence: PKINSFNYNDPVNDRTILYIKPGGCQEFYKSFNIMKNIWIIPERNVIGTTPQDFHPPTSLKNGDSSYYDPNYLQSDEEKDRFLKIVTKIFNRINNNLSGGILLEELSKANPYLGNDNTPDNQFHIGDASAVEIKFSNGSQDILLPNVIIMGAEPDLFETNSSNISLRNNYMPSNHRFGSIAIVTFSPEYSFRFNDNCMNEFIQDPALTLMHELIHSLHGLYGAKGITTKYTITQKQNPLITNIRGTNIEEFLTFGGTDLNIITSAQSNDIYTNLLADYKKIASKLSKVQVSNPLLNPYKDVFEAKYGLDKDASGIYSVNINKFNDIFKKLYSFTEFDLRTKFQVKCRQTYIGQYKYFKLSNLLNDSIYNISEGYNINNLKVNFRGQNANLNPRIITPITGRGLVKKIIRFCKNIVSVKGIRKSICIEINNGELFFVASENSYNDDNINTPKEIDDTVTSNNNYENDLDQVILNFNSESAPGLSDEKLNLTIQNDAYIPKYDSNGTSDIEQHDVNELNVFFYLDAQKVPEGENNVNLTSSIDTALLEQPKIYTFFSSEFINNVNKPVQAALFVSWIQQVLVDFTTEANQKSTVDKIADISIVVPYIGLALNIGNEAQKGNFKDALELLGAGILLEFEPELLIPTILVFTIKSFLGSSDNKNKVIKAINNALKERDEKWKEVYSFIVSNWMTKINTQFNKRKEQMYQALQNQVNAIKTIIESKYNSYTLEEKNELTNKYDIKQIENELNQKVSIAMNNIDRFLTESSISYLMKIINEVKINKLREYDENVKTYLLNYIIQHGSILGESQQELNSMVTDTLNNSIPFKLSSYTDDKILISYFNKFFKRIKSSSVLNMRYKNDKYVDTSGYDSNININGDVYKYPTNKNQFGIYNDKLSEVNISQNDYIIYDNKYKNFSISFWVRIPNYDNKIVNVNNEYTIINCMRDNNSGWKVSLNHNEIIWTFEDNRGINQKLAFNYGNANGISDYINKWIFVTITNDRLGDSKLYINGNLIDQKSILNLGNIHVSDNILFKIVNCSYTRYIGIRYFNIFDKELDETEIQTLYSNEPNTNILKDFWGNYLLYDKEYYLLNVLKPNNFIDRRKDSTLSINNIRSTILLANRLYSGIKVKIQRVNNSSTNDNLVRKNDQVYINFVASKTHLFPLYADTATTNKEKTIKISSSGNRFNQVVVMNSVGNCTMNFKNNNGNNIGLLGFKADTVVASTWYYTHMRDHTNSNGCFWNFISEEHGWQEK
The description is as above.

botulinum neurotoxin A, sequence (P0DPI0 2-1296 limits assumed): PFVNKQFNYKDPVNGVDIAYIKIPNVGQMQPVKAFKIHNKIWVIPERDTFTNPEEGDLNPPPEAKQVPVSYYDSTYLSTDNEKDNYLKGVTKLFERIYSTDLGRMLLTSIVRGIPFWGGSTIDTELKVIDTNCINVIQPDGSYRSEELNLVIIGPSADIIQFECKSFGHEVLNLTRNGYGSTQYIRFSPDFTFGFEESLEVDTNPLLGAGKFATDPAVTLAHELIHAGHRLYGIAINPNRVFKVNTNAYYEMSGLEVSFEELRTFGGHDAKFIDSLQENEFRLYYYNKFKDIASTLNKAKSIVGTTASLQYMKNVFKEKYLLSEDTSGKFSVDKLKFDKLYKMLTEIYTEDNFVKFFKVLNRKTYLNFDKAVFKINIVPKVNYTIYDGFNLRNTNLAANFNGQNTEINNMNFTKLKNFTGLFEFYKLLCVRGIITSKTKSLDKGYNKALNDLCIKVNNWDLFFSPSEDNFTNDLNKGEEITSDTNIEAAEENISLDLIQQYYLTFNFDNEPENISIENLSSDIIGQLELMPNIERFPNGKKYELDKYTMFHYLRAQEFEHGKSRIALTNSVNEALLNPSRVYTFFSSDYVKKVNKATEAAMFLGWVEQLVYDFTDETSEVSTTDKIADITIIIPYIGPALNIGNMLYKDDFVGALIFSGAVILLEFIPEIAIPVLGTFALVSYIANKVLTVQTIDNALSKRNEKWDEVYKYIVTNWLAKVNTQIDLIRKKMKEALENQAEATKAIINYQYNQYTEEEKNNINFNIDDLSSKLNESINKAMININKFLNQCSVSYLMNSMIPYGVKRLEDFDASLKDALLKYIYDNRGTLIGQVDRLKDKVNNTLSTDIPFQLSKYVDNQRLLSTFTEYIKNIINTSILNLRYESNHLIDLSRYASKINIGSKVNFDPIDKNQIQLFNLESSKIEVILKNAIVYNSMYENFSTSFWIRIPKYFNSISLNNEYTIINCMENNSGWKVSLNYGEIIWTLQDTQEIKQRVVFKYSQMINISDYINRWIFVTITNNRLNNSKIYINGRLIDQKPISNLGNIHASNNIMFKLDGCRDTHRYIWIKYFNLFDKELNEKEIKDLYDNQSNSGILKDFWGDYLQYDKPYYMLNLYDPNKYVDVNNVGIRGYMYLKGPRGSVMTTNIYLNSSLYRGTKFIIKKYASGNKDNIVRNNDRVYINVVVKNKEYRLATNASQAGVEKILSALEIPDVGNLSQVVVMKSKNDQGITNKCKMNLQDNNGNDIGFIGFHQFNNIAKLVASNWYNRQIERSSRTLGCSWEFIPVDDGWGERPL

B1: GST fusion of rat synaptotagmin IV lacking the C2B domain (receptor)
chain: MAPITTSRVEFDEIPTVVGIFSAFGLVFTVSLFAWICCQRRSAKSNKTPPYKFVHVLKGVDIYPENLSSKKKFGGDDKSEAKRKAALPNLSLHLDLEKRDLNGNFPKTNPKAGSSSDLENVTPKLFPETEKEAVSPESLKSSTSLTSEEKQEKLGTLFLSLEYNFEKKAFVVNIKEAQGLPAMDEQSMTSDPYIKMTILPEKKHKVKTRVLRKTLDPVFDETFTFYGVPYPHIQELSLHFTVLSFDRFSRDDVIGEVLVPLSGIELSDGKMLMTREIIKR
In the case of B1, the binding result in test [1] and in test [2] was “no binding (tested: 30 nM; also 300 nM (data not shown))” in each case.

B2: GST fusion of rat synaptotagmin I lacking the C2B domain (receptor)
chain: MVSASHPEALAAPVTTVATLVPHNATEPASPGEGKEDAFSKLKQKFMNELHKIPLPPWALIAIAIVAVLLVVTCCFCVCKKCLFKKKNKKKGKEKGGKNAINMKDVKDLGKTMKDQALKDDDAETGLTDGEEKEEPKEEEKLGKLQYSLDYDFQNNQLLVGIIQAAELPALDMGGTSDPYVKVFLLPEKKKKFETKVHRKTLNPVFNEQFTFKVPYSELGGKTLVMAVYDFDRFSKHDIIGEFKVPMNTVDFGHVTEEWRDLQSA
For B2, the binding result in test [1] and in test [2] was “no binding (tested: 30 nM; also 300 nM (data not shown))” each time.

B3: GST fusion of mouse synaptotagmin II lacking the C2B domain (residues 1-267) (receptor)
chain: MRNIFKRNQEPNVAPATTTATMPLAPVAPADNSTESTGPGESQEDMFAKLKEKFFNEINKIPLPPWALIAMAVVAGLLLLTCCFCICKKCCCKKKKNKKEKGKGMKNAMNMKDMKGGQDDDDAETGLTEGEGEGEEEKEPENLGKLQFSLDYDFQANQLTVGVLQAAELPALDMGGTSDPYVKVFLLPDKKKKYETKVHRKTLNPAFNETFTFKVPYQELAGKTLVMAIYDFDRFSKHDIIGEVKVPMNTVDLGQPIEEWRDLQGGE
B3: the binding result in test [1] and in test [2] was “no binding (tested: 30 nM; also 300 nM (data not shown))” each time.
